The target in this series is T1, HuNoV GII.2 VLP (Human norovirus GII.2, UniProt A0A291L9K1 1-542).
T1 sequence: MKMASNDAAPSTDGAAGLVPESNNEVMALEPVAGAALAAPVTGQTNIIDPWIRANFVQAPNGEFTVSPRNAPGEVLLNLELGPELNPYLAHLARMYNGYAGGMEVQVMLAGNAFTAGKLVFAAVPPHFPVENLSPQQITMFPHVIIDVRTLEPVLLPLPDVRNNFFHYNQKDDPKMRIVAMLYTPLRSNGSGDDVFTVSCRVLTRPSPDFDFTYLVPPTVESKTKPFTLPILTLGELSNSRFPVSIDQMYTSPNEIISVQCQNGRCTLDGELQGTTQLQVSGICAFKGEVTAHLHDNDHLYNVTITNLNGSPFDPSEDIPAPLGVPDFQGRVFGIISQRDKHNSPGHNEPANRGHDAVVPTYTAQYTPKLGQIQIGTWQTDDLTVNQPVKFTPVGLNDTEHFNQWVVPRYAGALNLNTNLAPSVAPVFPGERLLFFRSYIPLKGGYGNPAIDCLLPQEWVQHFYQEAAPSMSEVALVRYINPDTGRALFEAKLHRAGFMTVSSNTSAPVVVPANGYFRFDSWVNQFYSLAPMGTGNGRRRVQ
Kind of series: dot blot.

B1: AP17-4 (ssDNA)
DNA: GGAACACGACCCGTCTGTGGCCATCACAGTACAGCATCGTCGTG
In the case of B1, the binding result is listed as “binds”.

B2: AP4-2 (ssDNA)
DNA: AACACGACAACCCTGTGACCAACGAACCACACCAAAGTGGGC
For the molecule B2, the binding result is on record as “binds”.
